Measured values reported in patent CN114106174A (SUZHOU SCENE MEDICAL SCIENCE AND TECH LIMITED COMPANY, dated 2022).
Numbering of substitutions follows the chain as printed. Each block holds one binder with its values, some of them ahead of it.

Target: T1, OX40 on OX40-overexpressing cells (OX40过表达细胞表面OX40) (UniProt P43489 29-277, limits assumed)
T1 construct: whole, on cells; The cell line and the construct of the overexpressing cells are not described; also called CD134; TNFRSF4
T1 sequence (looked up): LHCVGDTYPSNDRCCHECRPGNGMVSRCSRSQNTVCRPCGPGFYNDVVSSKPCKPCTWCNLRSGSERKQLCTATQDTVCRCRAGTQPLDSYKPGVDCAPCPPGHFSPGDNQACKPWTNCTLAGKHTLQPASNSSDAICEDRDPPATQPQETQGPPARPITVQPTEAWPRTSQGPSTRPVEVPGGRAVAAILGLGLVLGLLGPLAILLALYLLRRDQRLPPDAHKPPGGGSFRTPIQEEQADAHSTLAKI
Assay: flow cytometry, hybridoma supernatant on OX40-overexpressing cells, goat anti-mouse IgG-PE

Y586通道PE荧光值: 475000
B2: 17D5-11 (antibody, V domains shown)
VH: QVQLQESGPGLVKPSETLSLTCAVSGGSINSTNWWSWVRQPPGKGLEWIGEIYHSGSTNYNPSLKSRVTISVDKSKNQFSLKLSSVTAADTAVYYCARGGAVALDYWGQGTLVTVSS
VL: EIVLTQSPGPLSLSPGDRATLSCRASQTVSSSYLAWYLQKPGQAPRLLIYGASIRATGIPDRFSGSGSGTDFTLTISRLEPEDFAVYYCQQYGNSPITFGQGTRLEIKR

Y586通道PE荧光值: 402000
B3: 18F11-4 (antibody, V domains shown)
VH: QVQLQESGPGLVKPSGTLSLTCAVSGGSISSYNWWSWVRQPPGKGLEWIGEIYHSGSTNYNPSLKSRVTISVDKSKNQFSLKLSSVTAADTAVYYCARDEDYYGSGNYYHWGQGTLVTVSS
VL: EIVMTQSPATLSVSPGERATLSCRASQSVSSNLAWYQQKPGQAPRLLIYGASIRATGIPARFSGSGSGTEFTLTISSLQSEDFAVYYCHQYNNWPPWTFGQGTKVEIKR

Y586通道PE荧光值: 424000
B4: 21F9-12 (antibody, V domains shown)
VH: B3 VH with S57N, V93M, E100Q, Y108F, H110Y
VL: not shown

Y586通道PE荧光值: 274000
B6: 24F10-1 (antibody, V domains shown)
VH: QVQLQESGPGLVKPSGNLSLTCVVSGASIINNNWWTWVRQSPGKGLEWIGEIFHSGTTNYNPSLKNRVTISVDKAKNQFSLNLKSVTAADTAVYYCVAYVSGTYYNFDYWGQGTLVTVSS
VL: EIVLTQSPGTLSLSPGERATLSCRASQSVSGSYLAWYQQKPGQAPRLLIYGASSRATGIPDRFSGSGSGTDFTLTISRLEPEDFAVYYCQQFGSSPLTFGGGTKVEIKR

Y586通道PE荧光值: 221000
B8: 29A9-5 (antibody, V domains shown)
VH: QVQLQESGPGLVKPSGTLSLTCAVFGDSISSSYWWSWVRQPPGKGLEWIGEIYHSGSTHYNPSLKSRVTISVDKSKNHLSLKLISVTDADTAVYYCAGEDTGWPFDFWGQGTLVTVSS
VL: not shown

Y586通道PE荧光值: 243000
B9: 38D9-12 (antibody, V domains shown)
VH: QVQLQESGPGLVKPSGTLSLTCAVSGDSISSTNWWSWVRQPPGKGLEWIGEINHNGSTYYNPSLKSRVTISVDKSKNQFSLKLRSVTAADTAVYYCAREDYYYMDVWGKGTTVTVSS
VL: DIQMTQSPSSLSASVGDRVTITCRTSQGIWNDLGWYQQKPGKAPKRLIYAASSLQSGVPSRFSGSESGTEFTLTISSLQPEDFATYYCLQYNNYPLTFGGGTKVEIKR

Y586通道PE荧光值: 195000
B10: 28E3-4 (antibody, V domains shown)
VH: QVQLQESGPGLVKPSGTLSLTCAVSGGSISRSNWWTWVRQSPGKGLEWIGEIYHSGNTNYNPSLKSRVTISLDKSKNQFSLKLSSVTAADTAVYYCASSGSLYMDVWGKGTTVTVSS
VL: DIQMTQSPSSLSASVGDRVTISCRASQSTSSYLNWYQQKPGKAPRLLIYGASSLQSGVPSRFSGSGSGTDFILTISSLQPEDFATYYCQQSYSIPITFGQGTRLEIKR

Y586通道PE荧光值: 187000
B11: 4D9-12 (antibody, V domains shown)
VH: B10 VH with R31S, T36S, S41P, N59I
VL: B10 VL with S12L, A13S, Q27H, S28G, T29S, S31T, S67F, L78M

Y586通道PE荧光值: 388000
B12: 29B8-3 (antibody, V domains shown)
VH: QVQLQESGPGLVKPSGTLSLTCAVSGVSISSSNWWSWVRQPPGKGLEWIGEIYHSGNTNYNPSLKSRVTISVDKSKNQFSLKLSSVTAADTAVYYCAETSTITTNYWGQGTLVTVSS
VL: B10 VL with S22T, S28T, T29I, R45K, G50A, G66E, I72T, S91T

Y586通道PE荧光值: 243000
B13: 35B8-6 (antibody, V domains shown)
VH: QITLKESGPTLVKPTQTLTLTCTFSGFSLSTSAVNVGWIRQPHGKALEWLALIFWNDDKRYSPSLKNRLTITKDTSKDQVVLTMSNMDPVDTATYYCAQYNWNSSFDYWGQGTLVTVSS
VL: DIQMTQSPSSLSASLGDRVTITCQASQDINTYLNWYQQKPGKAPKVLIYDASNLETGVPSRFSGSGSGTDFTFTISSLQPEDIATFYCQQYDNLITFGGGTKVEIKR

Y586通道PE荧光值: 540000
B18: 20D2-12 (antibody, V domains shown)
VH: QVQLVESGGGLVKPGGSLRLSCAASGFTFSDYYMSWIRQAPGRGLEWISYISGSDSTIYYEDSVMGRFTISRDNAKNSLYLQMNSLRAEDTAVYYCARDRDVYGYSGYGYFDYWGQGTLVTVSS
VL: B2 VL with P10T, D17E, T28S, S32R, L38Q, I54N, I59M, N94S

Y586通道PE荧光值: 171000
B21: 21F3-11 (antibody, V domains shown)
VH: QVQLQESGPGLVKPSGTLSLTCAVSGGSISSSNWWSWVRQPPGKGLEWIGEIYHGGSTNYNPSLKSRITISVDKSKNQFSLKLSSVTAADTAMYYCATLPGYSSGWFDSWGQGTLVTVSS
VL: EIVLMQSPGTLSLSPGERATLSCRASQSVSSSYLAWYQQKPGQAPSLLIYGASNRASGIPDRFSGSGSGTDFTLTITRLEPEDFAVYYCQQYGSSPLTFGGGTRVEIKR

Further lines, the binder ahead of its results:

B1: 21D2-3 (antibody, V domains shown)
VH: QVQLVESGGGLVKPGGSLRLSCAASGFTFSDYYMSWIRQAPGKGLEWVSYISSSGTTIYCADSVKGRFTISRDNAKNSLYLQMNSLRAEDTAVYYCARDSSTWYEGNYFDYWGQGTLVTVSS
VL: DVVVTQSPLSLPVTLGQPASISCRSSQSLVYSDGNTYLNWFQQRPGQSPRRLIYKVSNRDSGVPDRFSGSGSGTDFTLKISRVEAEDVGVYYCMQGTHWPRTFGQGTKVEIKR
Y586通道PE荧光值: 202000

B5: 24F8-7 (antibody, V domains shown)
VH: B3 VH
VL: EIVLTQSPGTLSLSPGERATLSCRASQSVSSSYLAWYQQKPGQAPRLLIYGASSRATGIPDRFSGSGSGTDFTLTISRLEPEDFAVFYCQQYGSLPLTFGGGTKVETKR
Y586通道PE荧光值: 437000

B7: 48D10-5 (antibody, V domains shown)
VH: QVQLVQSGAEVKKPGASMKVSCKASGYTFANFGINWVRQAPGQGLEWMGWISAYNGYTNYAQQFQGRITMTTDTSTSTAYMELRSLRSDDTAIYYCVIWFGELLSFDYWGQGTLVTVSS
VL: DIQMTQFPSSLSASVGDRVTITCRASQDISNYLAWFQQKPGKAPKSLIYAASSLQSGVPSKFSGNGFGTDFTFPLSRMQPEDFASSYCQQYNNYTFTFGRGTKVEIKR
Y586通道PE荧光值: 358000

B14: 20G6-7-1 (antibody, V domains shown)
VH: QVQLQESGPGLVKPSGTLSLTCAVSGGSISSSNWWSWVRQPPGKGLEWIGEIYHSGNTNYNPSLKSRVTISVDKSKNQFSLKLSSVTAADTAVYYCARGGTTFDYWGQGTLVTVSS
VL: EIVLMQYPGTLSLSSGERATLSCRASQSVSSRYLAWYQQKPGQAPRLLIYGASNRASGMPDRFSGSGSGTEFTLTISSLEPEDFAMYYCQQYGSSPITFGQGTRVEIKR
Y586通道PE荧光值: 352000

B15: 24B9-10 (antibody, V domains shown)
VH: QVQLQESGPGLVKPSGTLSLTCAVSGGSISSSNWWTWVRQPPGKGLEWIGEIYHSGSTNYNPSLKSRVTISVDKSKNQFSLKLSSVTAADTAVYYCARTGPIVTTEYWGQGTLVTVSS
VL: B21 VL with M5T, S32G, S46R, N54I, S57T, T77S, V86L, R104K
Y586通道PE荧光值: 313000

B16: 14D3-7-3 (antibody, V domains shown)
VH: EVQLVESGGGLVKPGGSLRLSCAASGFTFSNAWMSWVRQAPGKGLEWVGRIKRKTDGGTTDYATPVKGRFTISRDASKNTLYLQMNSLKTEDTAVYYCTSAARRGYFDIWGRGTLVTVSS
VL: B14 VL with M5T, Y7S, S15P, S57T, E71D, S78R, V105L
Y586通道PE荧光值: 274000

B17: 23C4-1-5 (antibody, V domains shown)
VH: QVQLQESGPGLVKPSGTLSLTCAVSGGSISSSNWWSWVRQPPGKGLEWIGEIYHSGSTTYNPSLKSRVTISVDKSKSQISLKLTSVTAADTAVYYCARGDVLLWFGGRGTLVTVSS
VL: B2 VL with P10T, D17E, T20S, T28S, S32N, L38Q, A44T, T75I, G93S, N94S
Y586通道PE荧光值: 63900

B19: 24A12-12 (antibody, V domains shown)
VH: B15 VH with S15A, T36N, K74T, S84T, I102T, E106D
VL: B21 VL with M5T, S46R, N54Y, S57T, I59M, D61E, T77S, V86I, S94R, R104K
Y586通道PE荧光值: 343000

B20: 16E4-10-5 (antibody, V domains shown)
VH: B17 VH with A23D, T59N, S77N, I79V, T84N, V101I, R108Q
VL: B14 VL with M5T, Y7S, S15P, S57T, E71D, S78R, M86V, V105L
Y586通道PE荧光值: 377000

B22: 18F5-2 (antibody, V domains shown)
VH: B17 VH with L4M, T21I, N33K, T59N, V72I, S77N, I79F, K82R, R108Q
VL: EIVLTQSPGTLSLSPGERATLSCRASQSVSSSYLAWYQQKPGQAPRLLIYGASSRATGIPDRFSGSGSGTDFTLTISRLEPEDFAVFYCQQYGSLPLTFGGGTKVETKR
Y586通道PE荧光值: 432000

B23: 26C3-4 (antibody, V domains shown)
VH: B17 VH with A23D, T59N, S77N, I79V, T84N, V101I, R108Q
VL: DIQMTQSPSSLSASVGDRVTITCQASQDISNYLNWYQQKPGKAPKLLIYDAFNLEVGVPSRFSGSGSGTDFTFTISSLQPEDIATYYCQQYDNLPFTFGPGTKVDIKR
Y586通道PE荧光值: 416000

B24: 23D1-8 (antibody, V domains shown)
VH: QVQLVQSGAEVKKPGASVKVSCKASGYTFTGYYIHWVRQAPGQGLEWMGRINPNSGGTDFAQKFQARVTMTRDTAINIVYMELSRLRSDDTAVYYCARVVVASYYFDNWGQGTLVTVSS
VL: not shown
Y586通道PE荧光值: 166000

B25: 1F10-12-3 (antibody, V domains shown)
VH: QVQLQESGPGLVKPSGTLSLTCAVSGGSISNSNWWNWVRQPPGRGLEWIGEIYHSGSTNYNPSLKSRVTISVDKSKNQFSLKLTSVTAADTAVYYCARYSTPFFDYWGQGNLVTVSS
VL: DIQMTQSPSSLSASVGDRVTITCRASQSISNYLNWYQQKQGKAPKLLIYGASSLQSGVPSRFSGSGSGTDFTLTINSLQPEDFATYCCQQSYNNPLTFGGGTKVEIKR
Y586通道PE荧光值: 170000
